assay: soluble on expression in E. coli; label from the status in PepcDB or PDB records

Sequence	soluble on expression in E. coli
MEDNRVEEDGEVKSDVGTSSDEKASDSEVEKRQRTDSERSGKDKKKKHKKEKKHKKDKKHKKEKKHKREKEVEMENDGPPAKKRTLEEVDTKKDESKKKEAKESSRNNEDELRNPPRRERSKSAERRDRELRERRDAERRDRSLSKERRLIQRKREDNRRDPRAHEGNRRRDRTPERFRNNRDRRDRDGRREDRHRRSPDRRRDSDRKREDGKRKDESKDVEWNLDSDSDDEQKKIEAARKRRIQIIKKIEGHTEENTPRDSSTPRSDTIGDKKTDESEDSSSDSEDDEDDRKLAEAKDLIKSTRFGSEQGSGASTPVSIQSDNDTPTDFFSGLRDKMVHMKDADEHNVDEVLQRGKDEEYREDWHTQLKEQEKREEEEKKKKLEAEAAAEAAKKKKQEEDDTGFDMFADNEELPQDSTTIDGHSGAVHDTLKDNWDDVEGYYRVRIGELLDTRYRVVGFTGAGVFGNVCRCNDQTKGNTVAVKIIRNNEVMYKTGLRELEVLRKLNEADKEDKYHCLRLFRTFKHHNHLCLVFENLSMNLRELLKKYGQKDGLHLKAVRSYAQQLLLALRLLKKLEFVHADIKPDNILVNESKLTLKLCDFGSAGRVNEQELAPYLVSRFYRAPEIMLGVRHDYAIDLWSVAVTLYEVYTGKIMFPGRTNNHMLKLFTDVKGKYPNKLVRKSQFKDTHFDVNCNLLYQEVDKVTERNKITVLANLKPTRDLESELIAGQRLSRDQMDQIQAFRTLLDGMLILDPSKRTTCNEALKHPFFTIPIK	soluble
MIIPALDLIDGTVVRLHQGDYGKQRDYGNDPLPRLQDYAAQGAEVLHLVDLTGAKDPAKRQIPLIKTLVAGVNVPVQVGGGVRSEEDVAALLEAGVARVVVGSTAVKSQDMVKGWFERFGADALVLALDVRIDEQGNKQVAVSGWQENSGVSLEQLVETYLPVGLKHVLCTDISRDGTLAGSNVSLYEEVCARYPQVAFQSSGGIGDIDDVAALRGTGVRGVIVGRALLEGKFTVKEAIACWQNA	soluble
MASAVGEKMLDDFEGVLNWGSYSGEGAKVSTKIVSGKTGNGMEVSYTGTTDGYWGTVYSLPDGDWSKWLKISFDIKSVDGSANEIRFMIAEKSINGVGDGEHWVYSITPDSSWKTIEIPFSSFRRRLDYQPPGQDMSGTLDLDNIDSIHFMYANNKSGKFVVDNIKLIGALEHHHHHH	soluble
MGSDKIHHHHHHMSYTTNKQPQGYPYFVTSKLREDMIGELVAINDYSFIISNSNIKEINDVLYHIRQEEHNHYGMLLELLRKYDPMEMDAYLRVIAHTTLTPVKEYLTVNSGITDKLLLNYLREGAKGELEAIILYEQHLAEIPYSDIRETLQKIVYEEKEHLEELTLVLINYDKDKYGSIKK	not soluble
MSLSTDDTLWREFLQVWPLERLREMTLAEYTTAGDKDCFVYWLEFRLVDYGSIAGGSAFKFAIFSRKETGAREGDTSLAYDDRYGWYRRFGTSPEEAFQTIRGHVVAVAEAARDGRLDEIDNSPLGAAYRWKIAFHYQPLRNPSTPCVYVRKPLLHFLGLSAADTTTPQSELYQALARLRQADESIFVFSERLWKDWVADTPFVVKLSEGAIKHGYLPVNLISAPFPETMYGGKTPNEAADVAHFRTDTGLEFDTDLRVSSPGSARLRHRLGGYFEDIGAAAGDLITLTQDGDGTYLLSSKLAVHAIGPTASAATITARASVKEAAAVRPPLNQILFGPPGTGKTYEAIEKALEILDPSFLLQLGDDESNERRRALKRRYDELAKEGLVQFVTFHQSFSYENFVEGLSASSDPDTKQVRYEVEDGVFKELCESARTRLVRRSDDAPLELSGRRIWKLSLGDSITEGHIFEECMEKGLALMGFGNNADFSQCQSREDIQKMFAASGEPLSLGAYPITAIKTFVCQMKLGDLIVVSEGNLKFRAIGEITGDYQLLPRDSDTYSQARPVRWLRGYKPALPYGALMENRFSQMTVYELRAGSIDHDKFRELLKSECIATGADRPHVLIIDEINRGNVSRIFGELITLIEPSKRSGAAEALEVLLPYSKDPFSVPDNVYLIGTMNTADRSLAGLDIALRRRFDFVEMAPRPDKLTGVKVAEIDISAVLETMNRRIEVLLDREHRLGHAYFMSLENSNDLSRLSNIFRQQIIPLLQEYFFEDWQRIAWILNDHRKDERFRFIVPAPYSVDSLFGDTGQVAQDSKAWRMNEEAFHKPQSYLGIVGDGKEGHHHHHH	not soluble
MAHHHHHHMTEGPLIVVGSVTLDQAARCYSPLSAPLRVRLEYAVLRPVVNPAWAATFEADIAYGRISVPLVQPTACSECMTPLNVPSSFLQHTPSDSIATLQPGELYQLDVHLETMELSKVEEKYVLQVGMLRLILLSGKTELADVNHVVQVKKNDDGELMRLIMNPLV	not soluble
MGNYKFRISEMLPNAWFHKLKDVTKHSKPKNKASSSSSNTCSKKKPSSDSLPQHSYFSNSLVANNPPHHNSPRNSLHTKKMSKRKTLYKPSLKPLTPPPLLVSASFNKSKINDQDSSYSLFPAIETSPESFVYSFYEEDDDDEFVEFSNFKINTKNKAFTKQKVKVIDSVEKACTASKPIKKPQKSHLSVKISRDEDDNEYKAEKKYQRQVSSGRKPSAGINLKRVNSPRIQLSGTRRSTSRRSESKQDVLESFAVMKRSVDPKKDFRESMIEMIEENNIRASKDLEDLLACYLTLNPKEYHDLIIHVFEQIWLQLTKTK	soluble
MSGKLYICPTPIGNLEDITYRTLRTLKEVDLIAAEDTRHSIKLLNHFEISKPLTSYHEHNKDSKGDYLINKLIDGENIALISDAGMPGISDPGEEIIKQAIQNNIEIEVLPGA	not soluble
MAHHHHHHMSKKEAISTPRKSKKAEVVIEGCVTIGSKQLLPSALDESRREQLSKQFDDIIEAHVAIDGGIADPVAAKIKELPTLSVGFIARAMGLNLSNDQVLSLVEMVEERDTVSRGCVPVGPLKEIIVGALMSGVITRQDSVAPTSNRKKRHSVSENRPLMHVSRDSEELIYAAFRTLDVGNRGYMEAEELRHLFRSGLEPFTDEEMENMIAAAADPQNGLIFYEDFVDVLANE	soluble
KTNTEQFCSDCHMNDVVPEYRASAHYSNRSGVKAVCADCHVPHEFAPKMLRKLQASTEVYAHLTGKVDNKEKFEAHRLAMAEREWARMKANNSQECRNCHNFEDMDFTQQKTVAQQMHSRAETENKTCIDCHKGIAHNLPHMEKVQKSFIPDDMIKKTEKATEIK	not soluble
MPFWGAGIKILHISEDFRTVKVRLKLRWWNKNANRTQYGGSIFSLTDPIYSLMLMGILREEYYVWDKEASINFIKPGQSDLFAEFEITDGMLDEIYQMTRNGEKCFPEFITHVKDKQGNVVSEVQRKLYVRKLEHHHHHH	not soluble
MSLQTAAAPTPAPVAAAPALPQGQVNIAVGSLKCKAEKCYGGLGEGIGDALTTALLNTGKFAVYERENTAQLTEEAFLNGGATFQGADVLIFGAITQYEPQASSGGLSFMGVSVGKKSSTIAMDLRIVDAKTRRIIGATQVQGKAEGNNFNVSGLLPVNVGAQSSPQLEAAISQMLNNAAQQLLLKVPASYYKEEGHHHHHH	soluble
MTRKIDYLNYEEIQSLKNSLLHNIKHTYISRYMILTALYTGMRPGEIAVLTWSDIDFKNQTININKSYNHDKGRVDNYDSSEIDKSTKNTNSVRIIKVDKKFLDILSQLKQNDHEKIFIGKDGTIPTSNAVNKVWRKQLEKLNIDKPSFHFHSVRHTHVALLPFKGVPLYAISKRLGHANMSTTAKKYAYMLDELKQQVRLEHHHHHH	not soluble
MGMRLICLNGWGGKLHDKLVPYIASSDPDILCLQEVVHTPAATQDWLSYRDHGVELPQRANFFRDVAEALPDHVAIFCPAAQGDLWQGETRYPSQFGLATFVRKSIAIIAQAQGFVHGVFSADGYGNHPRSRTAHAIRVFDFTTGQPVVIAHMHGLRDLEGKHDIPARLHQAKRLVQFVKNIAEDGDRVIVCGDFNVLPDSRTFAVLNELDLVELVTTRGFTDTRTSHYAKPNRYADYLLVNPAVKVSQFDVVRQPEVSDHCPLLLEFSMAGDPLEHHHHHH	not soluble
MRPQIMPFYIEMGKGDGGITGEDILQNWMLKSNLKNVEILEELPLRPTKLVVAISEEIYPDVYTIEDFKEKVGDREVFIASEFPEIARKYAEKHGLNAIVFDPIGKTEAALLPPMPEADLIIEITEFGTTLKENMCRIIDLVMDKVHSVFIVNKESLKDEEKKQVMENLVTDLKEVIESRNLVSFYFNVPNEDDLRRIIDYLTENGFDPTISPLAKGGAAVHIIVDRSRVKFLKPIIRGMGAKRIATSPVITSGTNRAAQQKPFYLLSGIQREFPSASPFF	not soluble
MHKSIAVFEVEGGNDKQFNGHRKDTLPIVDAIKEKGWHAEVVFYRPEWSEGLFEYVSQNFDGYISRVNPGNIPGGEKGYFDLLTKLSEAGLVGMSTPAEMMAYGAKDALVKLNDTDLVPSDTAAYYDVETFHNTFPTSLSYGERVLKQNRGSTGSGIWRVQLEDKELAASVAPGTALPLNTKLRCTEAVDNHTEIRELGEFMDFCDQYIVGDNGMLVDMRFMPRIVEGEIRILMVGPHPVFVVHKKPAAGGDNFSATLFSGAKYTYDKPEAWQELVDMFAAARPVIAEKLGGDNIPLIWTADFMLADGENGEDTYVLGEINCSCVGFTSELDMGIQELVAQEAVERVEKKHA	not soluble
MGSDKIHHHHHHMTEKFNRQRAENLIAIANQFAQLGKVTAVKAFGSGNINDTFLVTLDSSKEQHFVLQRINTQVFRQPKLIMQNMRTFTEHVHKRLQHTPLNRRWEVPRVLLTKDAQDHCQDSDGSFWRAISFIEGSQSFDTMRDRSQAKEIGYALGMFHNLISDLPPEKLADTLQGFHITPLYLQHYEEVLAKTSASQSSEVNYCLQFVSDRQAFAHILENAKAEGKLPLRLMHGDPKINNVMFDTVTQQAVSVIDLDTVKPGLVHYDIGDCLRSGCNQAGEETENWESVHFDPGLCQGILQGYLSVAKAFLTENDYAYIYDAIRLIAFELGLRFFADYLAGNVYFKVKHPEHNLARAIVQFKLTESIESQETQIRNIIKDMK	not soluble
MGSDKIHHHHHHMNVAIIGCGYVGYQVAQYWQQKMNFVVSTTTTSPERVPALQSVSQRVFVTSGNDLDSLKSVLHNQDVVLLSVGAKGAEVYEETYLQTAQNLVSCLQQNPSVKQLIYTGSYAVYGDRNGVWVDEETPLAPANLNAQILRKTEDILLSASSENLRVCIFRLGGIYGPGRELLKIFSRYSGTNRPGGEDITNWIHLDDIVGAIEFARNRRLQGIYNLVDDAHLTSRDLLDSLFEKHNLPKVIWDTTVKSTRPYNAWVSNEKLKEAGYQLIHPQMIF	not soluble
MGSDKIHHHHHHMYAQTPQDMTRALFEAQLVELQRARAIRKKYHTDVVLGLTSAIRVLLIDMPSLYDKIKLLDYLHIVVEEPRFRSSHEGVKFHAYTATLPPDRTPDRTLQRDRTSRQTAATPETPHTQTARSHKKVTRDTTPFAAYENSKYAPIFVEPHIFTVHPLLLWVQMAAYLRLEELVVLGDAMMRRSFYRVHVSPADFATLLNELPTTFPHRKKCDKAVKLLAENTDSCMETRLRFRMLRAGYGPFVINYRLPLNTADKKQAFLDIAIPNLKIAIEYSGKFHAQNWESDEARRTALSSAGWQILSVNAETLSNSGKFKDFLIQLSMTIARQQTILQRNQQM	not soluble
MDHYLVPYNQRANHSKPIPPFLLDLDSQSVPDALKKQTNDYYILYNPALPREIDVELHKSLDHTSVVCCVKFSNDGEYLATGCNKTTQVYRVSDGSLVARLSDDSAANKDPENLNTSSSPSSDLYIRSVCFSPDGKFLATGAEDRLIRIWDIENRKIVMILQGHEQDIYSLDYFPSGDKLVSGSGDRTVRIWDLRTGQCSLTLSIEDGVTTVAVSPGDGKYIAAGSLDRAVRVWDSETGFLVERLDSENESGTGHKDSVYSVVFTRDGQSVVSGSLDRSVKLWNLQNANNKSDSKTPNSGTCEVTYIGHKDFVLSVATTQNDEYILSGSKDRGVLFWDKKSGNPLLMLQGHRNSVISVAVANGSSLGPEYNVFATGSGDCKARIWKYKKIAPN	soluble
